Results on one molecule are retold here after paper PMC9774280, “Colon-Targeted eNAMPT-Specific Peptide Systems for Treatment of DSS-Induced Acute and Chronic Colitis in Mouse” (Antioxidants, 2022).

The target of assay [1] is fluorescently labeled CYBB (recombinant) (UniProt P04839 1-570, fluorescently labeled). The assay is described as follows: other fluorescence titration; fluorescently labeled TLR4 or CYBB titrated with unlabeled NAMPT; recombinant proteins; Kd by curve fit analysis. Particulars: both partners purified.
Chain of fluorescently labeled CYBB (recombinant) (P04839 whole entry): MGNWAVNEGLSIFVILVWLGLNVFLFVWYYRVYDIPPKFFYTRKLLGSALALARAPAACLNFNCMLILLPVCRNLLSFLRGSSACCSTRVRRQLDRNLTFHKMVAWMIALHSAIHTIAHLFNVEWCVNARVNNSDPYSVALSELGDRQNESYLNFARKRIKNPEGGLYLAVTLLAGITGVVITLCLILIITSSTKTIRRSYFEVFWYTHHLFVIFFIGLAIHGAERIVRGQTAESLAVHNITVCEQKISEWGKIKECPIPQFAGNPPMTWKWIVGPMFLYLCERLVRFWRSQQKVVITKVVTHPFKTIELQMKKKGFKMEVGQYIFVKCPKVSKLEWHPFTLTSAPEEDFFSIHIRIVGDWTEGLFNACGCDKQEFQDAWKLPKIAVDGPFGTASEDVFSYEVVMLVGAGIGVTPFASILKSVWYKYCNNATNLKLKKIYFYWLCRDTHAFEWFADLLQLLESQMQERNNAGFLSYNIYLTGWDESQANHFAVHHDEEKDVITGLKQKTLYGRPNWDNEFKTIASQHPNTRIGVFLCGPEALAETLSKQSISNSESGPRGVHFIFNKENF
For assay [2], the target named is fluorescently labeled TLR4 (recombinant) (UniProt O00206 24-839, fluorescently labeled). The assay is described as above. Particulars: both partners purified.

B1: recombinant NAMPT protein (natural protein, UniProt P43490 1-491, looked up)
chain: MNPAAEAEFNILLATDSYKVTHYKQYPPNTSKVYSYFECREKKTENSKLRKVKYEETVFYGLQYILNKYLKGKVVTKEKIQEAKDVYKEHFQDDVFNEKGWNYILEKYDGHLPIEIKAVPEGFVIPRGNVLFTVENTDPECYWLTNWIETILVQSWYPITVATNSREQKKILAKYLLETSGNLDGLEYKLHDFGYRGVSSQETAGIGASAHLVNFKGTDTVAGLALIKKYYGTKDPVPGYSVPAAEHSTITAWGKDHEKDAFEHIVTQFSSVPVSVVSDSYDIYNACEKIWGEDLRHLIVSRSTQAPLIIRPDSGNPLDTVLKVLEILGKKFPVTENSKGYKLLPPYLRVIQGDGVDINTLQEIVEGMKQKMWSIENIAFGSGGGLLQKLTRDLLNCSFKCSYVVTNGLGINVFKDPVADPNKRSKKGRLSLHRTPAGNFVTLEEGKGDLEEYGQDLLHTVFKNGKVTKSYSFDEIRKNAQLNIELEAAHH
notes: recombinant NAMPT protein added to BMDMs and precipitated with anti-His; The His tag is known only from the anti-His precipitation; also called rNAMPT; eNAMPT; source: recombinant
As to B1, the Kd in assay [1] worked out at 896 nM; in assay [2], 219 nM.
